Tests used:
BiP = target: T1, BiP (Mus musculus, UniProt P20029); experiment: Co-immunoprecipitation of bOVA with anti-BiP; type: binding; details: DC2.4 cells incubated with bOVA
T1 construct: BiP, an endogenous ER protein, was detected in the same microsomal fraction; endogenous in cells; host or cells: DC2.4 mouse dendritic cell line
Method: (§1) 2×10^7 DC2.4 or BMDC cells were cultured for four hours in a medium containing 10 μM MG-132 in the presence of bOVA at 250 μg mL^−1. Cells were lysed in 20 mM HEPES pH7.6 containing 1% digitonin and protease inhibitors to collect biotin-labeled samples. The samples were cleared of impurities in advance using protein G sepharose (Amersham Pharmacia Biotech), and after incubation with antibodies for precipitation (anti-Sec61β, anti Sec61α, anti-VCP, anti-BiP, anti-PDI, anti-calreticulin, anti-TAP1, and anti-TAP2), the immunoprecipitates were collected using protein G. When chicken anti-CHIP antibody was used, immunoprecipitates were collected using a rabbit anti-IgY column (a person, MBL). The precipitated samples were analyzed by SDS-PAGE and Western blotting.

calreticulin = target: T2, calreticulin (Mus musculus, UniProt P14211); experiment: Co-immunoprecipitation of bOVA with anti-calreticulin; type: binding; details: DC2.4 cells incubated with bOVA
T2 construct: Three types of ER resident proteins; endogenous in cells; host or cells: DC2.4 mouse dendritic cell line
T2 sequence (P14211 18-416): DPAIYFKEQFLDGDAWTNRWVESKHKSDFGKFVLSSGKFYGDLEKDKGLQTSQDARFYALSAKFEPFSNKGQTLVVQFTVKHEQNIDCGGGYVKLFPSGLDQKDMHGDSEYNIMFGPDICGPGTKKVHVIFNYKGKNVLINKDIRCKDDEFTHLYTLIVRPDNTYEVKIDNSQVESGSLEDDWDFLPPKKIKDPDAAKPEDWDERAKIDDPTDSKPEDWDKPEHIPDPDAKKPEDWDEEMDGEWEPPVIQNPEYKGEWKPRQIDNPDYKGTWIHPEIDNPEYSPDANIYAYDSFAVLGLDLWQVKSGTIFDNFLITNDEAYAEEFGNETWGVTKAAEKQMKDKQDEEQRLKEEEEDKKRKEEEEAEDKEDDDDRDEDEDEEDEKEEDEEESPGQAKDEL
Method: as §1

DC2.4 cells [1] = experiment: Polyubiquitination of antigen taken up by DC2.4 cells (Western blot, anti-polyubiquitin antibody); type: cell-based, mouse; details: CHIP-knocked-down DC2.4 (C4) vs parental DC2.4
DC2.4 cells [2] = experiment: Uptake of antigen into DC2.4 cells; type: cell-based, mouse; details: CHIP-knocked-down DC2.4 (C4 and C4F-1)
Source text: When CHIP-knocked-down DC2.4 cells (C4 and C4F-1) were produced to examine the polyubiquitination of bOVA when CHIP is knocked down, the uptake of bOVA into the CHIP-knocked-down DC2.4 cells was only about 70% that of uptake into the parental DC2.4 cells (FIGS. 4d and 4f). Despite this fact, polyubiquitination of bOVA was reduced to 34% in CHIP-knocked-down cells (FIG. 4f). The decrease in the amount of accumulated OVA was slowed down in CHIP-knocked-down cells (FIGS. 4d and 4e).
Next, DC2.4 cells were incubated for a set amount of time with OVA in the presence or absence of lactacystin (LC), and OVA taken up into the cells was measured. OVA taken up into cells in the presence or absence of Hsp90 was measured similarly.

TAP2 = target: T3, TAP2 (Mus musculus, UniProt P36371); experiment: Co-immunoprecipitation of bOVA with anti-TAP2; type: binding; details: DC2.4 cells incubated with bOVA
T3 construct: endogenous in cells; host or cells: DC2.4 mouse dendritic cell line
T3 sequence (P36371 1-702): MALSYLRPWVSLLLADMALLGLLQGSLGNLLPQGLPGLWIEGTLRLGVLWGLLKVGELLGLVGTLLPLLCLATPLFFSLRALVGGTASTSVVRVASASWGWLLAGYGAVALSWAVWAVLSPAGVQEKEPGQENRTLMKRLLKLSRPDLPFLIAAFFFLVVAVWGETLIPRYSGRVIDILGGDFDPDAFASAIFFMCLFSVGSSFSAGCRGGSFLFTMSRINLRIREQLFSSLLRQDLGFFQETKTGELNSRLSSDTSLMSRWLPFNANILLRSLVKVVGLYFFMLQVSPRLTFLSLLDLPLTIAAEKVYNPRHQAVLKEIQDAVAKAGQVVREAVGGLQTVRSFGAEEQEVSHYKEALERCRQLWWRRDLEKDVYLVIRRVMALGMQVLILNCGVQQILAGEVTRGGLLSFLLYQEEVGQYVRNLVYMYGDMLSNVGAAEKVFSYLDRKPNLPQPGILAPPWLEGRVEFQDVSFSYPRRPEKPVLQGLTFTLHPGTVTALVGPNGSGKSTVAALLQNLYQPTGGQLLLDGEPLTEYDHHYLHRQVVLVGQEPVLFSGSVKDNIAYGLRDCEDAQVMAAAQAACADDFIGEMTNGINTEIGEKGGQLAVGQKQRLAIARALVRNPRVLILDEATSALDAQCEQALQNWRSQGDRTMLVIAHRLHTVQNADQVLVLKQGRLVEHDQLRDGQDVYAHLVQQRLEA
T3 sequence (P21958 1-724 partner): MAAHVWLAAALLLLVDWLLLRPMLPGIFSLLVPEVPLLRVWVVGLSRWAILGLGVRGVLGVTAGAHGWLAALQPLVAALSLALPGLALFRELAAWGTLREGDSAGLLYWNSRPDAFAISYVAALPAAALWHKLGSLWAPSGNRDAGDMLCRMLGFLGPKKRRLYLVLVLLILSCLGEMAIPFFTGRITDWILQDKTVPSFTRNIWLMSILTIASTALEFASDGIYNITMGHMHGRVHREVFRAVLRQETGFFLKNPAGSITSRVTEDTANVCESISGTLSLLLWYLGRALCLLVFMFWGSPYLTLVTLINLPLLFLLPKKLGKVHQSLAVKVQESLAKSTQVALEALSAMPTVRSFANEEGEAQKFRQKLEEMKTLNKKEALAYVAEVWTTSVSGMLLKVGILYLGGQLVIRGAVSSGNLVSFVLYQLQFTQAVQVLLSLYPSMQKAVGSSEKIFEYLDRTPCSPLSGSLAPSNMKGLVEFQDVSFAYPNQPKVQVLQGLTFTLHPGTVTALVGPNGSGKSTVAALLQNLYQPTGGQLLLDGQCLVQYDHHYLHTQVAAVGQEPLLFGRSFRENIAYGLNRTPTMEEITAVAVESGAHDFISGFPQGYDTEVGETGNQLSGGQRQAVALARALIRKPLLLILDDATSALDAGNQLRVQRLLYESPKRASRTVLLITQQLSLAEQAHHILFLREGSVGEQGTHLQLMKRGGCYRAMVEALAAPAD
Method: as §1

Sec61β = target: T4, Sec61β (Mus musculus, UniProt Q9CQS8); experiment: Co-immunoprecipitation of bOVA with anti-Sec61β; type: binding
T4 construct: endogenous in cells; host or cells: DC2.4 mouse dendritic cell line; bone marrow-derived dendritic cells
T4 sequence (Q9CQS8 2-96 limits assumed): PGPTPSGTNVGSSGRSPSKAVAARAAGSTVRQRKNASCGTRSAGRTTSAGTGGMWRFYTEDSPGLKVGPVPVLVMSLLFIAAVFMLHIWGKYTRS
T4 sequence (P61620 whole entry partner): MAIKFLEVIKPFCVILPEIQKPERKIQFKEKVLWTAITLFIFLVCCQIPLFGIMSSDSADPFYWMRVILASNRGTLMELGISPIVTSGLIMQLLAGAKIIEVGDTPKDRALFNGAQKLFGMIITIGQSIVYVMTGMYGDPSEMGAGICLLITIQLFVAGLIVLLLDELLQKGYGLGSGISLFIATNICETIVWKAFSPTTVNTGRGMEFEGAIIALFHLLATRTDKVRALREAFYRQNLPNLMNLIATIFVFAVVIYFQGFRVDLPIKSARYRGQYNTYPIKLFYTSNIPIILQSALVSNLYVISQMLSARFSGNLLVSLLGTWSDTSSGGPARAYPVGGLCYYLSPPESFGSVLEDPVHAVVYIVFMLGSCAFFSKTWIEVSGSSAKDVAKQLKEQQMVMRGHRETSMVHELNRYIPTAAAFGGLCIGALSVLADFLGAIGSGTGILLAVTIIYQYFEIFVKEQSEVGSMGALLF
T4 sequence (P60060 whole entry partner): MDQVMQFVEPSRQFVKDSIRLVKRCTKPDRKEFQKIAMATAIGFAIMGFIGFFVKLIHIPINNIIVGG
Method: as §1

TAP1 = target: T5, TAP1 (Mus musculus, UniProt P21958); experiment: Co-immunoprecipitation of bOVA with anti-TAP1; type: binding; details: DC2.4 cells incubated with bOVA
T5 construct: endogenous in cells; host or cells: DC2.4 mouse dendritic cell line
T5 sequence (P21958 1-724): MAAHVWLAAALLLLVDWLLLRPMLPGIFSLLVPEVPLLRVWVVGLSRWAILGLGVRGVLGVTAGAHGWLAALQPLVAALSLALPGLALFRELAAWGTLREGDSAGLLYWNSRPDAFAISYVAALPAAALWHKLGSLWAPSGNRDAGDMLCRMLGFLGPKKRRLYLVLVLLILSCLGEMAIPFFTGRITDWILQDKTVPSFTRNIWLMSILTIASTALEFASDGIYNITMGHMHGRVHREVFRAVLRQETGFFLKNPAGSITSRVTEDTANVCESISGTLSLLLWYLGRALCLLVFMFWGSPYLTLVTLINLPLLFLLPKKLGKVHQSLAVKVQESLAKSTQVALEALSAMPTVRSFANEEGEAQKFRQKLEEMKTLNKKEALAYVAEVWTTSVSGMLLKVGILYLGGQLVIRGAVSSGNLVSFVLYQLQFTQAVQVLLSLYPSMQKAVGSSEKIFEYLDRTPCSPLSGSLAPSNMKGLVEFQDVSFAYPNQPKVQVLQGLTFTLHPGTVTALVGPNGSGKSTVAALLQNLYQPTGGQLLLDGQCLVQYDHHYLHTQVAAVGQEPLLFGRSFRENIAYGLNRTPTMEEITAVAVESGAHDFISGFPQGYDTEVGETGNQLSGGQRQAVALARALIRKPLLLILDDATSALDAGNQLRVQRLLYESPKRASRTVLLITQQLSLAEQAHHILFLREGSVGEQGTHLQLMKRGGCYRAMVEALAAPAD
Method: as §1

T1 sequence (P20029 20-655): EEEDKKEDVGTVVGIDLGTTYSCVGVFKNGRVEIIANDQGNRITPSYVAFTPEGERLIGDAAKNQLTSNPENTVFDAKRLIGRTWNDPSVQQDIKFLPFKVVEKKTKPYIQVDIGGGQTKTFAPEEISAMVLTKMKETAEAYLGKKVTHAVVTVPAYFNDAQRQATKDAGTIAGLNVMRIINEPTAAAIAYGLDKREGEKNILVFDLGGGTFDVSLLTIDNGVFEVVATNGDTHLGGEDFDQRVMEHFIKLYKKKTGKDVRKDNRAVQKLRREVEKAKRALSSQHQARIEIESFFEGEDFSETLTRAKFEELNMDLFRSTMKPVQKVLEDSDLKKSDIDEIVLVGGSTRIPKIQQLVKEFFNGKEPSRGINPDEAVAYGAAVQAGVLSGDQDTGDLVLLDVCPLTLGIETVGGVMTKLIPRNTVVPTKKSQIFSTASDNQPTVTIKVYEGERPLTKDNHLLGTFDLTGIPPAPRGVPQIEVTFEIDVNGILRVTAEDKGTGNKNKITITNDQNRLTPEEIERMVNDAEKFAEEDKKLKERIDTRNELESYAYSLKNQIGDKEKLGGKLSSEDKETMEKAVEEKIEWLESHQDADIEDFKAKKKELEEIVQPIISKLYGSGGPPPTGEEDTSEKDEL

B1: bOVA: biotin-labeled OVA antigen (protein)
chain: GSIGAASMEFCFDVFKELKVHHANENIFYCPIAIMSALAMVYLGAKDSTRTQINKVVRFDKLPGFGDSIEAQCGTSVNVHSSLRDILNQITKPNDVYSFSLASRLYAEERYPILPEYLQCVKELYRGGLEPINFQTAADQARELINSWVESQTNGIIRNVLQPSSVDSQTAMVLVNAIVFKGLWEKAFKDEDTQAMPFRVTEQESKPVQMMYQIGLFRVASMASEKMKILELPFASGTMSMLVLLPDEVSGLEQLESIINFEKLTEWTSSNVMEERKIKVYLPRMKMEEKYNLTSVLMAMGITDVFSSSANLSGISSAESLKISQAVHAAHAEINEAGREVVGSAEAGVDAASVSEEFRADHPFLFCIKHIATNAVLFFGRCVSP
- interaction with BiP (co-immunoprecipitation) (BiP): interacts
- interaction with calreticulin (co-immunoprecipitation) (calreticulin): interacts
- polyubiquitination of bOVA in CHIP-knocked-down cells (DC2.4 cells [1]): 34%
- uptake of bOVA into CHIP-knocked-down cells relative to parental DC2.4 cells (DC2.4 cells [2]): about 70%
- interaction with TAP2 (co-immunoprecipitation) (TAP2): does not interact
- interaction with Sec61β (co-immunoprecipitation) (Sec61β; BMDCs): interacts
- interaction with Sec61β (co-immunoprecipitation) (Sec61β; DC2.4 cells incubated with bOVA): interacts
- interaction with TAP1 (co-immunoprecipitation) (TAP1): does not interact

Source: US20080064048A1, “Methods for Selecting Proteins that are Readily Presented as Antigens on Dendritic Cells” (Medical and Biological Laboratories, Co., Ltd., priority 2004, published 2008)
